Test [1] concerns the target T1, TROP2 on NCI-H1975 and NUGC-4 tumor cells (UniProt P09758 27-323, limits assumed).
T1 construct: whole, on cells; species of the lines is not worded there; also called TROP2 on cells
T1 sequence (looked up): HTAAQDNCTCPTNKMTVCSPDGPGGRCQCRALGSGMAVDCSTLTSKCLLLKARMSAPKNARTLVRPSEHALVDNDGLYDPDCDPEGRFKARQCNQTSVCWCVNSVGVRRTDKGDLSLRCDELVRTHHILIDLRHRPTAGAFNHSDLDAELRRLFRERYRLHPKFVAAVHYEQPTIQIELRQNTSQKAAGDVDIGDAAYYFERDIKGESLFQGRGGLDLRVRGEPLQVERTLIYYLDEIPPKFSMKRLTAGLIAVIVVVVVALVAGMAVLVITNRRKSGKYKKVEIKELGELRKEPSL
Put plainly: flow cytometry on NUGC-4 cells (only TROP2 expression), anti-hIgG-Fc Alexa Fluor 647 secondary antibody, MFI [B]. Here is the method:
(§1) This experiment was performed to test the binding activities of the anti-PTK7/TROP2 bispecific antibodies to different tumor cell lines. NCI-H1975 cells or NUGC-4 cells were transferred to a 96-well plate at a density of 5×10⁴ cells/well respectively. The sample antibody was added to the 96-well plate, and incubated at 4° C. for 30 min.
A general note: A flow cytometer gives signals particle by particle.

In test [2] the target is T1, TROP2 on NCI-H1975 and NUGC-4 tumor …. The test is described as follows: flow cytometry on NCI-H1975 cells (PTK7/TROP2 co-expression), anti-hIgG-Fc Alexa Fluor 647 secondary antibody, MFI [A]. As to the method: as §1
Test [3] addresses T2, His-tagged human TROP2 protein (human, UniProt P09758 27-274).
T2 construct: Bought protein; also called hTROP2-His; ACRO Biosystems Cat# TR2-H5223; not shown: His tag
T2 sequence (looked up): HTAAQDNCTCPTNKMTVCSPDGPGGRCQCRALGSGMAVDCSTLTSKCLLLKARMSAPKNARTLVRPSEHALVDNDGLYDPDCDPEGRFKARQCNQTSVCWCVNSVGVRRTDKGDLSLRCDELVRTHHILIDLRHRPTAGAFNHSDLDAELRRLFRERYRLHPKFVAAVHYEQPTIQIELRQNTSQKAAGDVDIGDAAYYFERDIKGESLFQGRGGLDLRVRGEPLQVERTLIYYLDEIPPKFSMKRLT
The test is described as follows: SPR Biacore 8K, Ab on Protein A chip. As to the method: (§2) The affinity of the anti-TROP2 antibodies to His-tagged human TROP2 protein (hTROP2-His, ACRO Biosystems Inc., Cat #: TR2-H5223), His-tagged cynomolgus monkey TROP2 protein (cTROP2-His, ACRO Biosystems Inc., Cat #: TR2-R52H3) and His-tagged dog TROP2 protein (dTROP2-His, ACRO Biosystems Inc., Cat #: TR2-C52H4) were measured by surface plasmon resonance (SPR) using Biacore™ (Biacore, INC, Piscataway N.J.) 8K biosensor equipped with pre-immobilized Protein A sensor chips.
(§3) Purified anti-TROP2 antibodies were diluted to 1 μg/mL and then injected into the Biacore™ 8K biosensor at 10 μL/min for about 50 seconds to achieve a desired protein density (e.g., about 350 response units (RU)). The His-tagged TROP2 protein at a concentration of 200 nM was then injected at 30 μL/min for 180 seconds. Dissociation was monitored for 400 seconds. The chip was regenerated after the last injection of each titration with glycine (pH 2.0, 30 μL/min for 30 seconds).

Test [4] addresses T3, His-tagged monkey TROP2 protein (cynomolgus monkey; Rhesus …, UniProt A0A5F8AGB8 27-274).
T3 construct: also called cTROP2-His; ACRO Biosystems Cat# TR2-R52H3
T3 sequence: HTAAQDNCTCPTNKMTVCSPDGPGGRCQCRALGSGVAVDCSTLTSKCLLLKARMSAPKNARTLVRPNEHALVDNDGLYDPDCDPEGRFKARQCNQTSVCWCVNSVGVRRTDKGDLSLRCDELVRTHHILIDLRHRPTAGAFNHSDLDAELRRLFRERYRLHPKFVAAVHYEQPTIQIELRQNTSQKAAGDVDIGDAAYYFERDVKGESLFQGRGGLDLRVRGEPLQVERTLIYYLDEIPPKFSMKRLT
The test is described as follows: SPR Biacore 8K, Ab on Protein A chip. Here is the method:
as §2, §3
In general terms: In SPR one partner is held on a chip, and binding of the other changes the refractive index at the surface.

B1: DS-1062 analog (antibody, V domains shown)
VH: QVQLVQSGAEVKKPGASVKVSCKASGYTFTTAGMQWVRQAPGQGLEWMGWINTHSGVPKYAEDFKGRVTISADTSTSTAYLQLSSLKSEDTAVYYCARSGFGSSYWYFDVWGQGTLVTVSS
VL: DIQMTQSPSSLSASVGDRVTITCKASQDVSTAVAWYQQKPGKAPKLLIYSASYRYTGVPSRFSGSGSGTDFTLTISSLQPEDFAVYYCQQHYITPLTFGQGTKLEIK
notes: The sheet names it 'DS-1062 analog' with no LALA or SI suffix, so it is kept apart from m18 (DS-1062 analog-LALA); also called antibody portion of DS-1062; copies: 2 + 2
One may read the EC50 (read off the curve) as the midpoint of the concentration-response curve. B1: the entries for the “EC50 (read off the curve)” value in test [1] and in test [2] were about 0.3 µg/mL and about 0.4 µg/mL, respectively.

B2: Sacituzumab analog (antibody, V domains shown)
VH: QVQLQQSGSELKKPGASVKVSCKASGYTFTNYGMNWVKQAPGQGLKWMGWINTYTGEPTYTDDFKGRFAFSLDTSVSTAYLQISSLKADDTAVYFCARGGFGSSYWYFDVWGQGSLVTVSS
VL: DIQLTQSPSSLSASVGDRVSITCKASQDVSIAVAWYQQKPGKAPKLLIYSASYRYTGVPDRFSGSGSGTDFTLTISSLQPEDFAVYYCQQHYITPLTFGAGTKVEIKR
notes: also called antibody portion of Sacituzumab govitecan
As usually defined, the Kd is a measure of binding affinity in units of concentration. A word on the koff: it is the rate constant with which the complex falls apart. In general, kon refers to the rate constant with which the complex forms. In test [3], B2 returned a Kd of 1.24 nM, a koff of 0.000255 s⁻¹ and a kon of 205000 M⁻¹ s⁻¹. In test [4], this molecule came in with a Kd of 1.11 nM, a koff of 0.000245 s⁻¹ and a kon of 221000 M⁻¹ s⁻¹. The “EC50 (read off the curve)” value in test [1] was about 0.6 µg/mL. In addition, the “EC50 (read off the curve)” value in test [2] is about 0.7 µg/mL.

The record behind these values is patent US20260250421A1 (BIOCYTOGEN PHARMACEUTICALS BEIJING, published 2026).
